For this assay, the target named is MBP-FhtR (Faecalis heme transport Regulator fused to the maltose binding protein) (Enterococcus faecalis OG1RF). The assay can be described thus: SEC.

By stoichiometry N is commonly meant the number of molecules, sites or subunits per partner or assembly. The substance “MBP-FhtR (Faecalis heme transport Regulator fused to the maltose binding protein) (natural protein)” gave a stoichiometry N of 2.

The record behind these values is paper doi:10.1101/2020.06.22.166298.
